Results taken from PMC3744425.

Biological target: Ubiquitin-7-amino-4-methylcoumarin (human) (UniProt P0CG48)

Substance	Kapp (apparent kcat/Km) of Ub-AMC hydrolysis, far from saturating conditions [M⁻¹ s⁻¹]
TYMV PRO E759G/N760G mutant, N-terminally 6-histidine tagged (enzyme)	2060
TYMV PRO I847A mutant, N-terminally 6-histidine tagged (enzyme)	215
TYMV PRO I847D mutant, N-terminally 6-histidine tagged (enzyme)	14
TYMV PRO L732A/L765A mutant, N-terminally 6-histidine tagged (enzyme)	2510
Turnip yellow mosaic virus (TYMV) PRO domain, N-terminally 6-histidine tagged, wild type (enzyme)	2650
